For one experiment, the target named is T1, Flag-tagged human NgR (human, UniProt Q9BZR6 27-447).
T1 construct: Nogo-66 receptor (NgR), human; Printed both as Flag-hNgR and as NgR-Flag; also called Flag-hNgR; NgR-Flag; source: HEK293, transfected, in lysate
T1 sequence (looked up): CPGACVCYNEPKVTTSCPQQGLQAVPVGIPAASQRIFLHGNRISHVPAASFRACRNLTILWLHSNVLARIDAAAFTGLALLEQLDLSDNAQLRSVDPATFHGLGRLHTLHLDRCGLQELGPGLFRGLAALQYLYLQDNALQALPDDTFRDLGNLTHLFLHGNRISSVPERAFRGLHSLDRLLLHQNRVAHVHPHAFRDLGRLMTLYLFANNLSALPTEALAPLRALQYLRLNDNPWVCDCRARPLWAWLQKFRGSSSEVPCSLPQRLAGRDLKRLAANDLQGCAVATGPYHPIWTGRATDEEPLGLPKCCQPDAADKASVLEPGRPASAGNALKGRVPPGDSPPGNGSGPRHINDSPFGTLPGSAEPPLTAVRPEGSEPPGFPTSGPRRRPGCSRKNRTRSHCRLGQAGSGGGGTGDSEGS
The experiment is described as follows: co-IP; HEK293 co-transfected with wild-type or mutant p75 and Flag-tagged NgR; p75 co-immunoprecipitated with NgR; blots quantified, wild type = 100%. Particulars: partners not purified.

Experiment [1] has as its target T2, p75ICD (residues 290–418) (human, UniProt P08138 290-418).
T2 chain: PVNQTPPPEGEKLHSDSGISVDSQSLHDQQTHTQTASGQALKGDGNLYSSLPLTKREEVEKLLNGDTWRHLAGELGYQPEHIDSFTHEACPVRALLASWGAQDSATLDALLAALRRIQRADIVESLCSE
Put plainly: SEC; S200-Superdex gel filtration, 4 °C, PBS pH 8.0, 0.7 ml/min; p75ICD purified with or without DTT (or with iodoacetamide in the lysis buffer). Particulars: both partners purified.

For experiment [2], the target named is T2, p75ICD (residues 290–418). The experiment is described as follows: NMR titration; TROSY spectra of 15N-labelled p75ICD at different concentrations (10, 100, 500 µM) with DTT; 25 °C, PBS pH 8.0, 100 mM NaCl; monomer to dimer. Particulars: both partners purified.

Here are results for five molecules from publication PMC4122344, “Heterodimerization of p45–p75 Modulates p75 Signaling: Structural Basis and Mechanism of Action” (PLoS Biology, 2014).

B1: p75 D372R (full-length) (receptor, UniProt P07174 30-425, looked up)
chain: KETCSTGLYTHSGECCKACNLGEGVAQPCGANQTVCEPCLDNVTFSDVVSATEPCKPCTECLGLQSMSAPCVEADDAVCRCAYGYYQDEETGHCEACSVCEVGSGLVFSCQDKQNTVCEECPEGTYSDEANHVDPCLPCTVCEDTERQLRECTPWADAECEEIPGRWIPRSTPPEGSDSTAPSTQEPEVPPEQDLVPSTVADMVTTVMGSSQPVVTRGTTDNLIPVYCSILAAVVVGLVAYIAFKRWNSCKQNKQGANSRPVNQTPPPEGEKLHSDSGISVDSQSLHDQQTHTQTASGQALKGDGNLYSSLPLTKREEVEKLLNGDTWRHLAGELGYQPEHIRSFTHEACPVRALLASWGAQDSATLDALLAALRRIQRADIVESLCSESTATSPV
notes: p75 neurotrophin receptor; source: HEK293, transfected, in lysate
Turning to B1, the “percent co-immunoprecipitated with NgR (WT, 100%)” value with Flag-tagged human NgR was determined as 61.8%.

B2: p75 H376E (full-length) (receptor, UniProt P07174 30-425, looked up)
chain: KETCSTGLYTHSGECCKACNLGEGVAQPCGANQTVCEPCLDNVTFSDVVSATEPCKPCTECLGLQSMSAPCVEADDAVCRCAYGYYQDEETGHCEACSVCEVGSGLVFSCQDKQNTVCEECPEGTYSDEANHVDPCLPCTVCEDTERQLRECTPWADAECEEIPGRWIPRSTPPEGSDSTAPSTQEPEVPPEQDLVPSTVADMVTTVMGSSQPVVTRGTTDNLIPVYCSILAAVVVGLVAYIAFKRWNSCKQNKQGANSRPVNQTPPPEGEKLHSDSGISVDSQSLHDQQTHTQTASGQALKGDGNLYSSLPLTKREEVEKLLNGDTWRHLAGELGYQPEHIDSFTEEACPVRALLASWGAQDSATLDALLAALRRIQRADIVESLCSESTATSPV
notes: as for B1
In the case of B2, the “percent co-immunoprecipitated with NgR (WT, 100%)” value with Flag-tagged human NgR is 125%.

B3: p75 E377R (full-length) (receptor, UniProt P07174 30-425, looked up)
chain: KETCSTGLYTHSGECCKACNLGEGVAQPCGANQTVCEPCLDNVTFSDVVSATEPCKPCTECLGLQSMSAPCVEADDAVCRCAYGYYQDEETGHCEACSVCEVGSGLVFSCQDKQNTVCEECPEGTYSDEANHVDPCLPCTVCEDTERQLRECTPWADAECEEIPGRWIPRSTPPEGSDSTAPSTQEPEVPPEQDLVPSTVADMVTTVMGSSQPVVTRGTTDNLIPVYCSILAAVVVGLVAYIAFKRWNSCKQNKQGANSRPVNQTPPPEGEKLHSDSGISVDSQSLHDQQTHTQTASGQALKGDGNLYSSLPLTKREEVEKLLNGDTWRHLAGELGYQPEHIDSFTHRACPVRALLASWGAQDSATLDALLAALRRIQRADIVESLCSESTATSPV
notes: as for B1
Take B3: the “percent co-immunoprecipitated with NgR (WT, 100%)” value with Flag-tagged human NgR is 27.4%.

B4: p75-C257A (full-length) (receptor, UniProt P07174 30-425, looked up)
chain: KETCSTGLYTHSGECCKACNLGEGVAQPCGANQTVCEPCLDNVTFSDVVSATEPCKPCTECLGLQSMSAPCVEADDAVCRCAYGYYQDEETGHCEACSVCEVGSGLVFSCQDKQNTVCEECPEGTYSDEANHVDPCLPCTVCEDTERQLRECTPWADAECEEIPGRWIPRSTPPEGSDSTAPSTQEPEVPPEQDLVPSTVADMVTTVMGSSQPVVTRGTTDNLIPVYASILAAVVVGLVAYIAFKRWNSCKQNKQGANSRPVNQTPPPEGEKLHSDSGISVDSQSLHDQQTHTQTASGQALKGDGNLYSSLPLTKREEVEKLLNGDTWRHLAGELGYQPEHIDSFTHEACPVRALLASWGAQDSATLDALLAALRRIQRADIVESLCSESTATSPV
notes: p75 neurotrophin receptor; also called p75 TM domain mutant; source: HEK293, transfected, in lysate
On to B4, for which the “percent co-immunoprecipitated with NgR (WT, 100%)” value in the experiment with Flag-tagged human NgR stood at 17.7%.

B5: p75ICD (residues 290–418) (domain or fragment)
chain: PVNQTPPPEGEKLHSDSGISVDSQSLHDQQTHTQTASGQALKGDGNLYSSLPLTKREEVEKLLNGDTWRHLAGELGYQPEHIDSFTHEACPVRALLASWGAQDSATLDALLAALRRIQRADIVESLCSE
modifications: Methods print 'human p75ICD', but all residue numbers (L360, E363, Q367, D372, H376, E377, C379, W388, R404) and the mapped structure 1NGR fit the rat precursor; human P08138 is offset by +2 in this …
As usually defined, the stoichiometry N is a count of units in the complex or per binding partner. Usually Kd stands for the free concentration of one partner at which half of the binding sites on the other are occupied at equilibrium, for simple one-to-one binding. On to B5, for which the “stoichiometry N” value in experiment [1] was found to be 2. Besides, the equilibrium dissociation constant (Kd) in experiment [2] is around 100 µM.
